Test results published in US20210025890A1 (Genentech, published 2021).

Key:
FAP-cleaved human FGF21 [1] = target: T1, FAP-cleaved human FGF21 (human, UniProt Q9NSA1 29-199); test: sandwich ELISA; capture mAb4, detection mAb11
T1 construct: Made by digesting intact human FGF21 with human FAP; also called cleaved FGF21; cFGF21
T1 sequence: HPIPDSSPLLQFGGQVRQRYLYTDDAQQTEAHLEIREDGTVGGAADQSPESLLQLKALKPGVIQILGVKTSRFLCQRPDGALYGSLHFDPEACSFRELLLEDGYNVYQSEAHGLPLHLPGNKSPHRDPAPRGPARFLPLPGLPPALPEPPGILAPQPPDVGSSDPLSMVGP
Description: (§1) The absorbance values were plotted as a function of antibody concentration and the data were fitted to a three parameter equation for each antibody using Prism 6 (GraphPad Software, Inc., La Jolla, Calif.). The most consistent result was observed when antibodies mAb4 or 9 were used as the capture antibody and antibody mAb11 or mAb15 was used as the detector antibody (FIG. 2 and Table 7). Therefore, mAb8 and 16 were removed from further analysis.

intact human FGF21 [2] = target: T2, intact human FGF21 (human, UniProt Q9NSA1 29-209); test: sandwich ELISA; capture mAb4, detection mAb11
T2 construct: also called full-length, uncleaved FGF21; iFGF21
T2 sequence: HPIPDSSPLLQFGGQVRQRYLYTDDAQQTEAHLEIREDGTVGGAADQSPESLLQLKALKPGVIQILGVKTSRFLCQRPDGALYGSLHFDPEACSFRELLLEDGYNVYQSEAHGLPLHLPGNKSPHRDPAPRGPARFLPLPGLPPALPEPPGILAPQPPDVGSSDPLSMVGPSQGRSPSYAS
Description: as §1

FAP-cleaved human FGF21 [3] = target: T1, FAP-cleaved human FGF21; test: sandwich ELISA; capture mAb4, detection mAb16
Description: as §1

intact human FGF21 [4] = target: T2, intact human FGF21; test: sandwich ELISA; capture mAb4, detection mAb16
Description: as §1

FAP-cleaved human FGF21 [5] = target: T1, FAP-cleaved human FGF21; test: sandwich ELISA; coated primary Ab, FGF21 titrated, detector biotinylated goat anti-FGF21 pAb BAF2539
Experimental: (§2) IgG obtained from the selected 20 hybridomas identified in Example 1 were further characterized by ELISA. ELISA was performed as follows: 96 well MaxiSorp plate (439454, Nalge Nunc International; Rochester, N.Y.) was coated with 1 μg/mL of anti-FGF21 mAbs or anti-FGF21 sheep pAbs (Cat. No. RD184108100, Biovendor, Asheville, N.C.) in coating buffer (50 mM sodium carbonate, pH 9.6) overnight at 4° C. […] After washing with the Washing buffer, the plate was incubated with 0.5 μg/ml of the secondary antibody (R&D Systems, biotinylated goat anti-FGF21 pAb BAF2539) for 1-2 hr at room temperature. After washing with Washing buffer, the plate was incubated with High Sensitivity Streptavidin-HRP (PIERCE Cat. No. 21130) diluted 1:1,000 in assay buffer. After washing with the Washing buffer, the binding of anti-FGF21 to recombinant FGF21 was assessed by adding substrate 3, 3′, 5, 5′ tetramethyl benzidine (TMBE 1000, Moss; Pasadena, Md.). The mean absorbance values from duplicate wells were plotted as a function of antibody concentration and the data were fitted to a three parameter equation to calculate the half maximal effective concentration (EC₅₀) values for each antibody using Prism 6 (GraphPad Software, Inc., La Jolla, Calif.) (Table 2).

intact human FGF21 [6] = target: T2, intact human FGF21; test: as above
Experimental: as §2

intact human FGF21 [7] = target: T2, intact human FGF21; test: sandwich ELISA, intact human FGF21; capture mAb4, detector mAb1
Description: (§3) The absorbance values were plotted as a function of antibody concentration and the data were fitted to a three parameter equation to calculate the half maximal effective concentration (EC₅₀) values for each antibody using Prism 6 (GraphPad Software, Inc., La Jolla, Calif.) (Table 6).

intact human FGF21 [8] = target: T2, intact human FGF21; test: sandwich ELISA, intact human FGF21; capture mAb4, detector mAb11
Description: as §3

FAP-cleaved human FGF21 [9] = target: T1, FAP-cleaved human FGF21; test: sandwich ELISA; EC50 on FAP-cleaved FGF21 over EC50 on intact FGF21
Experimental: as §2

FAP-cleaved human FGF21 [10] = target: T1, FAP-cleaved human FGF21; test: sandwich ELISA; capture mAb4, detection mAb15
Description: as §1

intact human FGF21 [11] = target: T2, intact human FGF21; test: sandwich ELISA; capture mAb4, detection mAb15
Description: as §1

intact human FGF21 [12] = target: T2, intact human FGF21; test: sandwich ELISA, intact human FGF21; capture mAb4, detector mAb10
Description: as §3

FAP-cleaved human FGF21 [13] = target: T1, FAP-cleaved human FGF21; test: sandwich ELISA; capture mAb11, detection mAb15
Description: as §1

intact human FGF21 [14] = target: T2, intact human FGF21; test: sandwich ELISA; capture mAb11, detection mAb15
Description: as §1

intact human FGF21 [15] = target: T2, intact human FGF21; test: sandwich ELISA, intact human FGF21; capture mAb11, detector mAb9
intact human FGF21 [16] = target: T2, intact human FGF21; test: sandwich ELISA, intact human FGF21; capture mAb11, detector mAb4
FAP-cleaved human FGF21 [17] = target: T1, FAP-cleaved human FGF21; test: sandwich ELISA; capture mAb11, detection mAb4
Description: as §1

intact human FGF21 [18] = target: T2, intact human FGF21; test: sandwich ELISA; capture mAb11, detection mAb4
Description: as §1

intact human FGF21 [19] = target: T2, intact human FGF21; test: sandwich ELISA, intact human FGF21; capture mAb9, detector mAb1
FAP-cleaved human FGF21 [20] = target: T1, FAP-cleaved human FGF21; test: sandwich ELISA; capture mAb9, detection mAb16
Description: as §1

intact human FGF21 [21] = target: T2, intact human FGF21; test: sandwich ELISA; capture mAb9, detection mAb16
Description: as §1

intact human FGF21 [22] = target: T2, intact human FGF21; test: sandwich ELISA, intact human FGF21; capture mAb9, detector mAb10
Description: as §3

FAP-cleaved human FGF21 [23] = target: T1, FAP-cleaved human FGF21; test: sandwich ELISA; capture mAb9, detection mAb15
Description: as §1

intact human FGF21 [24] = target: T2, intact human FGF21; test: sandwich ELISA; capture mAb9, detection mAb15
Description: as §1

intact human FGF21 [25] = target: T2, intact human FGF21; test: sandwich ELISA, intact human FGF21; capture mAb9, detector mAb11
FAP-cleaved human FGF21 [26] = target: T1, FAP-cleaved human FGF21; test: sandwich ELISA; capture mAb9, detection mAb11
Description: as §1

intact human FGF21 [27] = target: T2, intact human FGF21; test: sandwich ELISA; capture mAb9, detection mAb11
Description: as §1

FAP-cleaved human FGF21 [28] = target: T1, FAP-cleaved human FGF21; test: sandwich ELISA; capture mAb15, detection mAb4
Description: as §1

intact human FGF21 [29] = target: T2, intact human FGF21; test: sandwich ELISA; capture mAb15, detection mAb4
Description: as §1

FAP-cleaved human FGF21 [30] = target: T1, FAP-cleaved human FGF21; test: sandwich ELISA; capture mAb15, detection mAb11
Description: as §1

intact human FGF21 [31] = target: T2, intact human FGF21; test: sandwich ELISA; capture mAb15, detection mAb11
Description: as §1

B1: mAb4 (antibody, V domains shown)
VH: EVKLVESGGDLVKPGGSLKLSCAASGFTFSSYGMSWVRQTPDKRLEWVATISTGGGYTYYPDSVKGRFTISRDNAKNTLYLQMSSLRSEDTAMYYCARHDLVDWYFDVWGTGTTVTVSS
VL: QIVLTQSPAIMSAPLGERVTMTCTASSSVSSSYLHWYQQKPGSSPKVWIYRTTNLASGVPTRFSGSGSGTSYSLTISSMEAEDAATYYCHQYHRSPPTWTFGGGTKLEIKR
notes: Biotinylated when used as detector, coupled to beads in the Simoa assays; also called BIO-4 (biotinylated); antibody 4
FAP-cleaved human FGF21 [1]
  EC50: 0.148 ng/mL
Intact human FGF21 [2]
  EC50: 0.195 ng/mL
FAP-cleaved human FGF21 [3]
  EC50: 7.04 ng/mL
Intact human FGF21 [4]
  EC50: 1.25 ng/mL
FAP-cleaved human FGF21 [5]
  EC50: 0.17 ng/mL
Intact human FGF21 [6]
  EC50: 0.09 ng/mL
Intact human FGF21 [7]
  EC50: 0.193 ng/mL
Intact human FGF21 [8]
  EC50: 0.133 ng/mL
FAP-cleaved human FGF21 [9]
  EC50 ratio (Cleaved/Intact): 1.9
FAP-cleaved human FGF21 [10]
  EC50: 0.263 ng/mL
Intact human FGF21 [11]
  EC50: 0.232 ng/mL
Intact human FGF21 [12]
  EC50: 0.108 ng/mL

B2: mAb11 (antibody, V domains shown)
VH: QVQLQQSGAELARPGASVKLSCKASGYTFTNYGISWVKQRTGQGLEWIGEIYPRSDNTYYNEKFKGKATLTADKSSSTAYMELRSLTSEDSAVYFCTRSDYGFFDYWGQGTTLTVSS
VL: QIVLTQSPALMSASPGERVTMTCSAGSSVSYMYWYQQKPRSSPKPWIYLTSNLASGVPARFSGSGSGTSYSLTISSMEAEDAATYYCQQWSSNPRTFGGGTKLEIKR
notes: Biotinylated when used as detector; also called BIO-11 (biotinylated); antibody 11
FAP-cleaved human FGF21 [13]
  EC50: 0.63 ng/mL
Intact human FGF21 [14]
  EC50: 0.774 ng/mL
FAP-cleaved human FGF21 [5]
  EC50: 0.318 ng/mL
Intact human FGF21 [6]
  EC50: 0.149 ng/mL
FAP-cleaved human FGF21 [9]
  EC50 ratio (Cleaved/Intact): 2.1
Intact human FGF21 [15]
  EC50: 0.195 ng/mL
Intact human FGF21 [16]
  EC50: 0.161 ng/mL
FAP-cleaved human FGF21 [17]
  EC50: 0.204 ng/mL
Intact human FGF21 [18]
  EC50: 0.205 ng/mL

B3: mAb9 (antibody, V domains shown)
VH: EVQLQQSGPELVKPGASVKIPCKASGYTFTDYYMGWVKQSHGKSLEWIGDINPNNGVTINNQNFKGKATLTVDKSSSTAYMELRSLASEDTAVYYCTRGYGGALDYWGQGTSVTVSS
VL: DIQMTQSPASLSASVGETVIITCRASENIYSYLAWYQQKQGKSPQLLVYNIRTLAEGVPSRFSGSGSGTQFSLKINSLQPEDFGSYYCQHHYDSPWTFGGGTKLEIKR
notes: also called BIO-9 (biotinylated); antibody 9
Intact human FGF21 [19]
  EC50: 0.249 ng/mL
FAP-cleaved human FGF21 [20]
  EC50: 6.23 ng/mL
Intact human FGF21 [21]
  EC50: 1.45 ng/mL
Intact human FGF21 [22]
  EC50: 0.161 ng/mL
FAP-cleaved human FGF21 [23]
  EC50: 0.363 ng/mL
Intact human FGF21 [24]
  EC50: 0.431 ng/mL
FAP-cleaved human FGF21 [5]
  EC50: 1.39 ng/mL
Intact human FGF21 [6]
  EC50: 0.855 ng/mL
FAP-cleaved human FGF21 [9]
  EC50 ratio (Cleaved/Intact): 1.6
Intact human FGF21 [25]
  EC50: 0.156 ng/mL
FAP-cleaved human FGF21 [26]
  EC50: 0.156 ng/mL
Intact human FGF21 [27]
  EC50: 0.166 ng/mL

B4: mAb15 (antibody, V domains shown)
VH: QVQLIQSGPGLVQPSQSLSITCTVSGFSLTGYAIHWVRQSPGKGLEWLGMIWKSGNTDYNAAFMSRLSITKDNSKSQVFFKMNSLQADDTAIYYCARNGYDYEFVYWGQGTLVTVSA
VL: DVLMTQTPLSLPVSLGDQASISCRSSQIIVHNNGDTYLEWYLQKPGQSPKLLIYKISNRFSGVPDRFSGSGSGTDFTLKISRVEAEDLGVYYCFQGSHVPYTFGGGTKLEIKR
notes: Biotinylated when used as detector; also called BIO-15 (biotinylated); mAb15-Biotin
FAP-cleaved human FGF21 [28]
  EC50: 0.562 ng/mL
Intact human FGF21 [29]
  EC50: 0.537 ng/mL
FAP-cleaved human FGF21 [30]
  EC50: 1.24 ng/mL
Intact human FGF21 [31]
  EC50: 1.39 ng/mL
